Key:
[1] = target: N-terminal region of Cul3 (Cul3a residues 1-379) (zebrafish, UniProt F6NVK8 1-379); assay: MST
[2] = target: Cul3 NTD lacking the first 18 amino acids (zebrafish, UniProt F6NVK8 19-379); assay: MST

B1: BTB-BACK fragment of Btbd6 (Btbd6a residues 119-361) (domain or fragment)
chain: SAHPTLRERNALMFNNEQMADVHFIVGPPGESQRVPAHKYVLAVGSSVFCAMFYGDLAEGDSDIHIPDVEPAAFLILLKYMYSDEIELAPDTVLATLYAAKKYLVSALARACVGFLETSLEARNACVLLSQSRLFEEPELTQRCWEVIDAQAELALRSEGFSEIDLPTLESILHRETLNVKESVVFQAVLGWADAECRRQGLSPTSQNQRSVLGKALHLVRLPSMTLQEFADGAAQVDILTLE
modifications: NT-647 amine-reactive dye (RED-NHS kit) where used as the labelled partner in MST
Kd [1]: 0.012 µM

B2: BTB domain of Plzf (Plzfa residues 8-126) (domain or fragment)
chain: MIQLQNPNHPNALLHKANQMRLAGTLCDVVIMVDSQEFHAHRTVLACTSKMFEILFHRNSQHYTLDFLSPKTFQQILEYAYTATLQAKVEDLDDLLYAAEILEIEYLEEQCLKILETIQ
modifications: NT-647 amine-reactive dye (RED-NHS kit) where used as the labelled partner in MST
Kd [1]: 2.9 µM
Kd [2]: ≥ 20 µM
